The source of these data is publication PMC2112147.

As usually defined, the stoichiometry N is the number of molecules, sites or subunits per partner or assembly.

Test [1] deals with actinogelin (mouse (endogenous in Ehrlich tumor cells)) (UniProt Q7TPR4). The experiment in a line: AUC.
In test [2] the target is rabbit skeletal muscle actin (rabbit) (UniProt P68135). Kind of test: co-sedimentation. The settings on record: scale: G-actin units per actinogelin dimeric unit.
Test [3] has as its target actinogelin (mouse (endogenous in Ehrlich tumor cells)) (UniProt Q7TPR4). The experiment in a line: cross-linking.

actinogelin, sequence (Q7TPR4 whole entry): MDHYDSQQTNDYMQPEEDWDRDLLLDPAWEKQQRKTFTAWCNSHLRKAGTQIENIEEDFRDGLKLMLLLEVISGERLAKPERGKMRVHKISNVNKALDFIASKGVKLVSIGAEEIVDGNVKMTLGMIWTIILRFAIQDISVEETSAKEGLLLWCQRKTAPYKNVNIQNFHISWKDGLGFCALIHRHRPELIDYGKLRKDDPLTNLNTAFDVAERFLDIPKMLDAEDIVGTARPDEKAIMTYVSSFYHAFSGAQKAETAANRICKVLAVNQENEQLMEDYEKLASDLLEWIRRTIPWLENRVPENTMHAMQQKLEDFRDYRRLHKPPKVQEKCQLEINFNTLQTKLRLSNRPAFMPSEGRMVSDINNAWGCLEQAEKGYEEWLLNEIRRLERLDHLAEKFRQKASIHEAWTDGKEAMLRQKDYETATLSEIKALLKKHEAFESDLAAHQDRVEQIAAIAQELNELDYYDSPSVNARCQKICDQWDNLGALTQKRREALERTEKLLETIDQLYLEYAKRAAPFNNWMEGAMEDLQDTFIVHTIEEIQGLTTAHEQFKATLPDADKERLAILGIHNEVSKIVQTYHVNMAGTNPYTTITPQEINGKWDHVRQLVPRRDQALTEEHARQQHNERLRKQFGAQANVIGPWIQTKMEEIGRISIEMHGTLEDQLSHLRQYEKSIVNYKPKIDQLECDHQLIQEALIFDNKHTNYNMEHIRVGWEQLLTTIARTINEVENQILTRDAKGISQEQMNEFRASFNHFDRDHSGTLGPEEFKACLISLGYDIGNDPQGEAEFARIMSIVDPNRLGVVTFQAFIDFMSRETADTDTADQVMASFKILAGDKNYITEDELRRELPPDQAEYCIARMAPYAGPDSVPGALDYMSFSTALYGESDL

As for “actinogelin (from UniProt Q7TPR4 1-892) (natural protein)”, the results for the stoichiometry N in test [1], in test [2] and in test [3] were 2 subunits, 10 to 12 and 2 subunits, respectively.
